Source: patent US20240294650A1 (Alector, published 2024)
Positions count from the first letter of the chain named. One block for each binder: values may come before it.

What was measured:
[1] = target: T1, recombinant murine MerTK extracellular domain (mouse, UniProt Q60805 19-497); test: SPR Carterra LSA, Ab immobilised
T1 construct: also called Mouse MerTK; murine MerTK ECD; not shown: polyHis or TEVS/Thrombin/murine IgG2a-Fc tag
T1 sequence: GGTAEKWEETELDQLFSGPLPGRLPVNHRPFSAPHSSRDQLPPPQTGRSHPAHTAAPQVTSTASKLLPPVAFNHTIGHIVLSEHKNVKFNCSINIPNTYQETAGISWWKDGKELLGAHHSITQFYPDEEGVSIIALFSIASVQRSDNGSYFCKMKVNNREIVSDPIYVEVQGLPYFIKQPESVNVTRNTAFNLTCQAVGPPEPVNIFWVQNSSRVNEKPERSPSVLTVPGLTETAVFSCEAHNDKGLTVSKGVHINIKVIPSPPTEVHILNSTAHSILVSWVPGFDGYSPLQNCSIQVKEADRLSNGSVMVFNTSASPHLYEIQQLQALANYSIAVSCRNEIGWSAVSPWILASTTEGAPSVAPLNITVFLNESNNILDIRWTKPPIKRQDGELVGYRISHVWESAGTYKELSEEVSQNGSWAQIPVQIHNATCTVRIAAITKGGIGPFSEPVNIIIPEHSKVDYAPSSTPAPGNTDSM
Outline: (§1)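 Surface plasmon resonance on a Carterra LSA measured affinity of immobilized antibodies for human, cynomolgus or mouse MerTK ectodomain diluted in HBS-TE with 0.5 mg/ml BSA. Analytes flowed over the full array, surfaces were regenerated with Protein A/G Elution Buffer plus 1M NaCl or 10 mM Glycine pH 2.5, and spots binding under 25 RU were discarded before kinetic fitting.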

[2] = target: T2, recombinant cynomolgus MerTK extracellular domain (cynomolgus, UniProt Q12866 21-505 (human entry)); test: SPR Carterra LSA, Ab immobilised
T2 construct: also called cyno MerTK ECD; not shown: polyHis or TEVS/Thrombin/murine IgG2a-Fc tag
T2 chain: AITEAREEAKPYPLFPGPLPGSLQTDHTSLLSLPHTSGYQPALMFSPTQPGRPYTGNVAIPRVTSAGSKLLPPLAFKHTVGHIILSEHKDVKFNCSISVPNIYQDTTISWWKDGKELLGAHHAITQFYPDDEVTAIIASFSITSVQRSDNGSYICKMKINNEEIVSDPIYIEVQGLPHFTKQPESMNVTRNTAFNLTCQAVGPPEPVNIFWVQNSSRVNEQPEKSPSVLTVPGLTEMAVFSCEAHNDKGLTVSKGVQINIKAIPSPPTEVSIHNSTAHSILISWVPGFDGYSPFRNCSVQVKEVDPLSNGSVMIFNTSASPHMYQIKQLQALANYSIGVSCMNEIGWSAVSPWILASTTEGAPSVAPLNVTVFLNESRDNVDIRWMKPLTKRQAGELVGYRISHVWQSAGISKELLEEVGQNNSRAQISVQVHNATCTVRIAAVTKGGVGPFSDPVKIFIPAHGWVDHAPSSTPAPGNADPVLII
Outline: as §1

[3] = target: T2, recombinant cynomolgus MerTK …; test: SPR Carterra LSA
Procedure: Binding kinetics of anti-MerTK IgG1 antibodies of the present disclosure to human, cyno, and murine MerTK were evaluated using a Carterra LSA instrument (Carterra, Salt Lake City, UT). […] A HC200M sensor chip (Carterra) was activated using the single channel flow cell with a 7-minute injection of a 1:1:1 mixture of 100 mM MES pH 5.5, 100 mM sulfo-NHS, 400 mM EDC (all reconstituted in MES pH 5.5; 100 μl of each mixed in vial immediately before running assay). After switching to the multi-channel array flow cell, the antibodies were injected over the activated chip in three 96-spot arrays for 10 minutes each. The remaining unconjugated active groups on the chip were then blocked by injecting 1M Ethanolamine pH 8.5 (Carterra) for 7 minutes using the single channel flow cell. The resulting sensor chip contained three spots for each antibody, at three different densities. Two independent experiments were performed as follows, resulting in an N of between one and six determinations for each antibody. Spots that yielded less than 25 RU of analyte binding were excluded from further analysis.
After priming with running buffer (HBS-TE, Carterra) with 0.5 mg/ml BSA (Sigma), the immobilized anti-MerTK antibodies were tested for their ability to bind to several forms of recombinant MerTK extracellular domain, including human, cynomolgus, and mouse orthologs as described above. Estimates of affinity were generated by injecting each analyte over the entire antibody array using the single channel flow cell. MerTK analytes were diluted with running buffer, in a series of six, three-fold serial dilutions starting from 1 μM for human and cynomolgus MerTK, and 600 nM for mouse MerTK. Analytes were injected for 5 minutes, and dissociation was followed for 10 minutes. After each analyte injection, antibodies were regenerated with either Protein A/G Elution Buffer (Thermo) with 1M NaCl (Teknova), or with 10 mM Glycine pH 2.5. Three buffer blanks were run between each series (one species per series). Data were processed and analyzed using NextGenKIT high-throughput kinetics analysis software (Carterra).

[4] = target: T3, MerTK N-terminal ECD Half-and-half chimera (human); test: SPR, construct supernatant over immobilised Ab
T3 construct: tested as culture supernatant; also called MerTK N-term half-and-half chimera; MerTK N-terminal ECD (NT-Ig1-Ig2) + Axl C-terminal ECD (FN1-FN2-JM)
T3 chain: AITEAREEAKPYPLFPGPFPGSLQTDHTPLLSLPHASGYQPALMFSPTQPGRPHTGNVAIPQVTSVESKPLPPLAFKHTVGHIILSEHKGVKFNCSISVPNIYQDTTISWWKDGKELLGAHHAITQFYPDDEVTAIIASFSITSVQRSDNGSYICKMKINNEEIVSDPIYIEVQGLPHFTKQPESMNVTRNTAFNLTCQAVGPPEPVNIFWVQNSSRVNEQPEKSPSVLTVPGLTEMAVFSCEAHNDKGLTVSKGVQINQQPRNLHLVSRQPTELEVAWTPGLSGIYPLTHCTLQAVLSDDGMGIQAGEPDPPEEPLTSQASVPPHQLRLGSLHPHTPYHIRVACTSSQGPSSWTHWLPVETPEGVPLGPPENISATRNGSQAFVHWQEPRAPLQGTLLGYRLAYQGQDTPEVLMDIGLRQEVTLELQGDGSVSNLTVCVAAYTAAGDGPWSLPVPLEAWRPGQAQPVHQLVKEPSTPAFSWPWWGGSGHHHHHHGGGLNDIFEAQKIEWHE
Procedure: Binding of anti-MerTK antibodies of the present disclosure to these domain-swapped chimera or deletion mutants was tested by Surface Plasmon Resonance (SPR) using Carterra LSA. Purified anti-MerTK antibodies were immobilized in duplicate on a HC30M chip (Carterra) by amine coupling, following the manufacturer's instructions (described previously).
Supernatants containing the constructs were diluted 1:1 with running buffer containing 0.5 mg/mL BSA (HBS-TE, Carterra; BSA, Sigma) and injected over the immobilized antibodies. The surface was regenerated with 10 mM Glycine pH2.0 after each construct injection. Sensorgrams were analyzed using Carterra Epitope software to identify patterns of construct binding. Loss of binding to MerTK constructs with domains deleted or swapped in from Axl and/or gain of binding to Axl constructs with MerTK domains swapped in were evaluated. Data from these studies were used to construct a domain binding map for anti-MerTK antibodies and their binding to various domains of human MerTK.

B2: MTK-214 (antibody, human IgG1, V domains shown)
VH: QVQLQQPGAELVKPGASVKVSCKASGYTFTNYWMHWMKQRPGQGLEWIGRIHPFDSDTNYNEKFTDKATLTVDKSSSTAYMQLSSLTSEDSAVYYCAIGTLIYWGQGTTLTASS
VL: DILLTQSPATLSVTPGETVSLSCRASQSIYKKLHWFQQRSHRSPRLLIKFASDSISGIPSRFTGSGSGTDYTLSINSVKPEDEAIYYCLQGYSTPLTFGAGTKLELK
Kd [1]: 320 nM
binding result [4]: no binding

B3: MTK-219 (antibody, human IgG1, V domains shown)
VH: QVQLQQSGADLMKPGASVKLSCKATGNTFTGYWIEWVKQRPGHGLEWIGEILTGSGSTNYNERFKGKATFTADTSSNTAYMQLSSLTTEDSAIYYCAGSYFTNSWFPYWGQGSLVTVSA
VL: DIVLTQSPASLAVSLGQRATISCRASESVDSYGNSFMHWYQQKPGQPPKLLIYRAYTLESGIPARFSGSGSRTDFTLTINPVEADDVATYYCQQSNEDPRTFGGGTKLEIK
Kd [2]: 830 nM
Ratio of KD for Cynomolgus vs Human MerTK [3]: 1.9 ratio
binding result [4]: no binding

B4: MTK-222 (antibody, human IgG1, V domains shown)
VH: B3 VH with N27Y, T58S, R63K, T74S, Y80F, F101Y, T102S
VL: B3 VL with A9V, N34S, Y56S, T57S, A84T
Kd [2]: 130 nM
Ratio of KD for Cynomolgus vs Human MerTK [3]: 1 ratio
binding result [4]: no binding

B8: MTK-203 (antibody, human IgG1, V domains shown)
VH: QVQLQQPGAELVKPGASVKVSCKASGYTFTNYWMHWVKQRPGQGLEWIGRIHPFDTETNDNQKFKGKATLTVDKSSSTAYMQLSSLTSEDSAVYYCVIPANGGFAYWGQGTLVTVSA
VL: ETTVTQSPASLSVATGEKVTIRCITSTDIGDDMNWYQQKPGEPPKVLISEGNSLRPGVPSRFSSSGYGTDFVFTIENTLSEDVADYFCLQSDNLPLTFGSGTKLEIK
Kd [1]: 400 nM
binding result [4]: no binding

B9: MTK-224 (antibody, human IgG1, V domains shown)
VH: QVQLQQPGAELVKPGASVKVSCKASGYTFTSYWMHWVKQRPGQGLEWIGRIHPFDSDTNYNQKFKGKATLTVDKSSSTAYMQLSSLTSEDSAVYYCSIAGFAYWGQGTLVTVSA
VL: DIVMTQSPATLSVTPGDRVSLSCRASQIISDYLNWYQQKSHESPRLLIKYASQSISGIPSRFSGSGSGSDFTLSINSVEPEDVGVYYCQNGHSFPLTFGAGTKLELK
Kd [1]: 430 nM
binding result [4]: no binding

B10: MTK-209 (antibody, human IgG1, V domains shown)
VH: B9 VH with S31N, M34I, D57E, T58P, Q82H, S84T, S97A, I98L, G100S
VL: ETTVTQSPASLSMAMGEKATIRCITSTDIDDKMNWYQQKPGKPPKLLISAGNTLRPGVPSRFSSSGYGTDFVLTVENMLSEDVADYYCLQGGALPLTFGSGTKLEIK
Kd [1]: 460 nM
binding result [4]: no binding

More lines, main results first:

Kd [2]: 38 nM
Ratio of KD for Cynomolgus vs Human MerTK [3]: 1.3 ratio
B1: MTK-221 (antibody, human IgG1, V domains shown)
VH: QVTLKESGPGMLQSSQTLSLTCSFSGFSLSTSGMGVSWIRQPSGKGLEWLAHIYWDDDKRYNTSLQSRLTISKDTSRNQVFLKITSVDTADTATYFCGRLGAYSAFPYYFDYWGQGTTLTVSS
VL: DIQMTQSPSSLSASLGGKVTITCKASQDIHKHIAWYQHKPGKGPRLLIHYTSTLQPGIPSRFSGSGSGRDYSFSISNLEPEDLATYYCLQYDNLWTFGGGTKLEIK
binding result [1]: no binding (tested: analyte up to 600 nM)

Kd [2]: 52 nM
Ratio of KD for Cynomolgus vs Human MerTK [3]: 2.9 ratio
binding result [4]: no binding
B5: MTK-229 (antibody, human IgG1, V domains shown)
VH: QVQLQQSGPELVKPGASVKISCKASGYEFSRSWMNWVKQRPGKGLEWIGRIYPGDGDTNYKGKLKGQATLTADKSSSTAYMQLSSLTFEDSAVYFCARGGGYYYDSRYEGFVYWGQGTVVTVSA
VL: QIVLTQSPAIMSASPGEEVTMTCSASSSVSYMHWYQQKSGTSPKRWIYDTSKLASGVSGRFSGSGSGTSYSLTISSMEAEDAATYYCQQWSSNPPITFGAGTKLELK

Kd [1]: 29 nM
binding result [4]: no binding
B6: MTK-230 (antibody, human IgG1, V domains shown)
VH: EVQLQQSGPELVKPGASVRIPCKASGYTFSDYNMDWVKQSHGKSLEWIGNINPNIGGTIYSQKFKGKATLTVDKSSSTAYMELRSLTSEDTAVYYCARGDYGFASWGQGTLVTVSA
VL: DIVLTQSPASLTVSLGQRATISCRASRSVSTSGYSYMHWYQQKPGQPPKLLIYLASNLESGVPARFSGSRSGTDFTLNIHPVEEEDAATYYCQHSREYPFTFGSGTKLEIK

Kd [1]: 8.3 nM
Kd [2]: 78 nM
Ratio of KD for Cynomolgus vs Human MerTK [3]: 0.8 ratio
binding result [4]: no binding
B7: MTK-227 (antibody, human IgG1, V domains shown)
VH: EVKLVESGGGLVQPGGSLSLSCAASGFTFTDNYMTWVRQPPGKALEWLGFSRNKANGYTTEYSASVKGRFTISRDSSQSILYLQMNALRAEDSGTYYCARFPPHYYAGGYFDVWGTGTTVTVSS
VL: DIQMTQSPASLSASVGETVTITCRASENIYSYLAWYQQKQGKSPQLLVYNAKTLAEGVPSRFSGSGSGTQFSLKINSLQPADFGSYYCQHYYRTPPTFGGGTKLEIK
